Series [1] deals with CBX7 chromodomain (CBX7CD). Nature of the series: fluorescence anisotropy. Conditions: not given in material (buffer, salt, pH and temperature in supplement). A general note: Polarisation of emitted light reports the rotation of a fluorescent probe.
In series [2] the target is H3K9me3 peptide of the fluorescence anisotropy assay. The series is described as follows: fluorescence polarisation.
In series [3] the target is T1, CBX7CD (Mus musculus, UniProt Q8VDS3).
T1 sequence (Q8VDS3 11-69 limits assumed): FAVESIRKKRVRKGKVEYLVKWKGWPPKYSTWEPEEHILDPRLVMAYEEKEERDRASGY
Format: binding. Conditions: fluorescence anisotropy, fluorescein-labeled peptide; measured in triplicate.

For series [4], the system named is RNA Pol II (ANRIL transcription), PC3 nuclei. Nature of the series: In vitro transcription of ANRIL from PC3 whole nuclei. Format: cell-based, human. Conditions: [α-32P]-UTP incorporation.
Series [5] has as its system CBX7 at INK4b/ARF/INK4a locus, PC3 cells. The series is described as follows: ChIP of CBX7 occupation in PC3 cells treated with α-amanitin. Format: cell-based, human. The conditions noted are these: whole PC3 cell treatment, 10 μg/ml, relative to histone H3.
Series [6] deals with INK4b/ARF/INK4a locus, PC3 cell nuclei. The series is described as follows: Quantitative ChIP of PC3 nuclei after RNase A. Format: cell-based, human.
Series [7] deals with T2, CBX7 chromodomain ( (human or mouse cDNA cloned), UniProt Q8VDS3 1-71).
T2 sequence: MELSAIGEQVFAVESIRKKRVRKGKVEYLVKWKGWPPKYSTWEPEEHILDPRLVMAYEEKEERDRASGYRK
The series is described as follows: fluorescence polarisation.

Where [8] appears, read: RNase A treatment of PC3 cell nuclei.

Where no end group is shown, it is not given here.

The values that follow come from publication PMC2886305 (Molecular cell, 2010).

What is called Kd is the free concentration of one partner at which half of the binding sites on the other are occupied at equilibrium, for simple one-to-one binding. As to ANRIL loop A RNA, the Kd in series [1] came to 13.7 µM.

For ANRIL loop B RNA, the Kd in series [1] stood at 30.2 µM.

On to ANRIL loop C RNA, for which, in series [1], the Kd was determined as 14.6 µM.

In turn, “CBX7 chromodomain (from UniProt Q8VDS3 1-71) (domain or fragment)” yielded a Kd in series [2] of 16.5 µM.

As for “H3K9me3: H3K9me3 peptide (histone H3 methylated at lysine 9)”, in series [3], the Kd is 16.5 ± 0.8 µM.

For α-amanitin, the “sensitivity of nascent ANRIL transcription” value in series [4] was “shows sensitivity to α-amanitin”. Also, the “CBX7 levels (ChIP)” value in series [5] is “depleted levels of CBX7”.

B1: RNase A: ribonuclease A (protein, UniProt P61823 27-150, looked up)
Ribonuclease pancreatic: KETAAAKFERQHMDSSTSAASSSNYCNQMMKSRNLTKDRCKPVNTFVHESLADVQAVCSQKNVACKNGQTNCYQSYSTMSITDCRETGSSKYPNCAYKTTQANKHIIVACEGNPYVPVHFDASV
As to B1, in series [6] (setting [8]), the “site occupation by CBX7, PHC2, Bmi1 and Suz12” value is listed as “dramatically reduced”; the “total levels of H1 and H3” value is reported as “remained about the same”. For the same molecule, the “levels of trimethylated H3K27 and ubiquitinated H2AK119” value in series [6] (RNase A treatment, at CBX7 occupation sites) is recorded as “greatly reduced”.

With APRKQLATKAARK(Me3)SAP (also: fluorescein label (position not given here)) [fluorescein-labeled H3K27me3 peptide], the affinity in series [7], expressed as Kd, was 59 ± 4.7 µM.
